Results taken from paper PMC6992001.
Values joined by “and” are separate entries in the source; they are usually repeats but may differ in a detail not shown here. Equal entries are not always repeated.

Molecular target: Pomacea canaliculata hemocyanin (PcH), native (Pomacea canaliculata)
Experiment: negative-stain transmission electron microscopy; native PcH 0.12 g/L in 20 mM Tris-HCl pH 7.4, 20 mM CaCl2, 20 mM MgCl2; 2% uranyl acetate, room temperature; self-association of subunits into decamers stacked to multi-decamers

- stoichiometry N: 20 subunits and 30 subunits and 40 subunits
Substance: Pomacea canaliculata hemocyanin (PcH), native (complex)
